Target: T1, Muc16 on tumor cells (human, UniProt Q8WXI7 1-14507)
T1 construct: whole, on cells; Endogenous protein; also called CA125
Assay: flow cytometry on WISH cells

B1: OC125 (antibody)
chain 1: QVQLQESGPELVKPGASVKISCKASGYTFTDYNMHWVKQSHGKSLEWIGYIYPYNGDTGYNQKFRNKASLTVDTSSSTAYMELRSLTSEDSAVYYWARSGGFWYFDVWGQGGTTVTVSS
chain 2: DIQMTQSPAILSASPGEKVTMTCRATPSVSYMHWYQQKPGSSPKPLIYTTSNLASGVPARFSGGGSGTSYSLTVSRVEVEDAATYYCQQWSRSPPTFGAGTKLEIK
  fold fluorescence shift at saturation binding against MJ-171: > 5 fold
